Measured values taken from US20060263855A1.

Biological target: α-Hemoglobin (αHb) (UniProt P69905)
Assay: cell-based or functional assay

UniProt P69905, sequence (P69905 2-142): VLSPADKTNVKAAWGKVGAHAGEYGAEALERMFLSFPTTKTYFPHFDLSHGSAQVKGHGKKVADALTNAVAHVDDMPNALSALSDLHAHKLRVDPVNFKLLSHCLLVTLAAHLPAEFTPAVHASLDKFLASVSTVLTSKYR

- Acceleration of rate of αHb oxidation by AHSP (ratio of oxidation rate constants): 6.2
Substance: α-hemoglobin stabilizing protein (AHSP) (from UniProt Q9NZD4 1-102)
